We go through one molecule from patent publication US20230383006A1 (ADIENNE S A, published 2023).

The target in assay [1] is Purified recombinant human CD26 (rhDipeptidyl peptidase IV; Creative BioMart; CAT #DPP4-116H) (human, UniProt P27487 29-766). Put plainly: SPR (Biacore), 25 C, CDina26 captured on anti-IgG2b CM5 chip, human CD26 as analyte at 30-810 nM. Here is the method: Surface Plasmon Resonance system (Biacore®) was used to determine the affinity of CDina26 for human CD26 according to standard protocols. Affinity measurements were taken at 25° C., immobilizing on carboxymethyl dextran chip (CM5) 10.000 RU of an anti-IgG2b antibody (GE Healthcare, 22-0648-97 AC). CDina26 was prepared as stock in HBS-EP (0.01M HEPES, pH 7.4, 0.15M NaCl, 3 mM EDTA, 0.005% Surfactant P20) running buffer in a final concentration of 50 μg/ml, and for each experiment 2.000 RU were reversibly immobilized on the chip by injection with a flow of 10 μl/min in a period of 180 seconds.
Purified recombinant human CD26 (rhDipeptidyl peptidase IV; Creative BioMart; CAT #DPP4-116H) was prepared in a stock concentration of 5.8×10^-6 M. CD26 was injected at increasing concentrations of 30×10⁻⁹, 90×10⁻⁹ M, 270×10⁻⁹ M and 810×10⁻⁹ M. The CD26 samples were injected with a flow of 10μl/minute; with HBS-EP buffer used as running buffer. A typical recording included a 3 minutes period of injection of the CD26 followed by a period of 8 minutes of dissociation. The raw binding data was analyzed according to standard methods. CM5 chip with immobilized anti-IgG2b antibody was regenerated by injection of 10 mM Glycine-HCl pH 1.7 with a flow of injection of 20 μl/min and for a period of 60 seconds.
A general note: SPR reads the build-up and loss of mass on a sensor chip optically.

In assay [2] the target is T1, Matrix 3 discontinuous CLIPS peptides covering residues 226 to 252 of human CD26 (human, peptides fixed on a CLIPS scaffold through thiol side chains of cysteines).
T1 construct: A set of peptide constructs from this range; also called protruding loop of CD26
Put plainly: CLIPS epitope mapping, discontinuous peptides, Matrix 3. From the text:
The epitopes recognized by the CDina26 antibody produced by hybridoma cell line deposited as PD 12002 have been identified by CLIPS™ Epitope Mapping technology. See, e.g., U.S. Pat. Nos. 7,863,239 and 7,972,993, the disclosures of which are herein incorporated by reference in their entirety. Briefly, CLIPS™ technology structurally fixes peptides into defined three-dimensional structures. […] The CLIPS™ reaction takes place between bromo groups of the CLIPS™ scaffold and thiol side chains of cysteines. The reaction is fast and specific under mild conditions (Timmerman et al., J. Mol. Recognit. 2007; 20: 283-29).
CLIPS™ library screening starts with the conversion of the human CD26 target protein into a library of overlapping peptide constructs, using a combinatorial matrix design. On a solid carrier, a matrix of linear peptides is synthesized, which are subsequently shaped into spatially defined CLIPS™ constructs. Constructs representing several parts of a discontinuous epitope in the correct conformation bind the antibody with high affinity, which is detected and quantified. […] Affinity information is used in iterative screens to define the sequence and conformation of epitopes in detail.

The target of assay [3] is T2, Human Antigen (purchased from Sigma CAT #D4943) (human, UniProt P27487 29-766, limits assumed).
T2 construct: Bought soluble protein injected in solution in Biacore; also called human CD26; Human Antigen (Ag)
Put plainly: Biacore T100, CDina26 captured by immobilized polyclonal anti-mouse Ig antibody, human antigen injected at two concentrations.

The target of assay [4] is T3, porcine CD26 expressed on minipig T lymphocytes (porcine (minipig), UniProt P22411 1-766).
T3 construct: whole, on cells; Native CD26 on lymphocytes isolated from minipig peripheral blood; also called minipig CD26; Porcine Antigen as a transmembrane protein expressed on T lymphocytes
Nature of the assay: multiparametric flow cytometry on lymphocytes from minipig peripheral blood, CD3 (FL1-H) against CD26/CDina26 (FL2-H).

For assay [5], the target named is T4, Porcine Antigen (purchased from Sigma CAT #D 7052) (porcine, UniProt P22411 38-766, limits assumed).
T4 construct: Bought soluble protein; also called porcine CD26; Porcine Antigen (Ag)
Put plainly: Biacore, CDina26 captured by an immobilized polyclonal anti-mouse Ig antibody, Porcine Ag injected in solution.

Chain of Purified recombinant human CD26 (rhDipeptidyl peptidase IV; Creative BioMart; CAT #DPP4-116H) (P27487 29-766 limits assumed): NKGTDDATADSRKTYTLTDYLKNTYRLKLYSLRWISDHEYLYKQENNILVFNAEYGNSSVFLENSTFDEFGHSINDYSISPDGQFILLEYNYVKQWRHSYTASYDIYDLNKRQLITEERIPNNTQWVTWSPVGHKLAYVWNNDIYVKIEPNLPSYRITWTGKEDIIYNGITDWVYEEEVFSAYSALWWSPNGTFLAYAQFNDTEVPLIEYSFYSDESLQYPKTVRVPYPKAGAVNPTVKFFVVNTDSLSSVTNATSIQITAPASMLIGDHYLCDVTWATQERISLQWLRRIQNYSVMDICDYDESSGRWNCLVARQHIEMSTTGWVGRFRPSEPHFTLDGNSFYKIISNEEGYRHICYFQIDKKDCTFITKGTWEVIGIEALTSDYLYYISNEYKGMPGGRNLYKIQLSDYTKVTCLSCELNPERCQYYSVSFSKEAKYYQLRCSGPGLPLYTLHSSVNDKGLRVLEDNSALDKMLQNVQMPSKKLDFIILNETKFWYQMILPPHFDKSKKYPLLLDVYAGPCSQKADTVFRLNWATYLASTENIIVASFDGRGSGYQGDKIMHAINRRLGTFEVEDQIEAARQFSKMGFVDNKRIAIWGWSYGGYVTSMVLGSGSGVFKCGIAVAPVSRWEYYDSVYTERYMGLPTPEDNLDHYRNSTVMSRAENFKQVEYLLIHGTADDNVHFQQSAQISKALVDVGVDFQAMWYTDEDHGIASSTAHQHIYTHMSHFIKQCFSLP
T3 sequence (P22411 whole entry): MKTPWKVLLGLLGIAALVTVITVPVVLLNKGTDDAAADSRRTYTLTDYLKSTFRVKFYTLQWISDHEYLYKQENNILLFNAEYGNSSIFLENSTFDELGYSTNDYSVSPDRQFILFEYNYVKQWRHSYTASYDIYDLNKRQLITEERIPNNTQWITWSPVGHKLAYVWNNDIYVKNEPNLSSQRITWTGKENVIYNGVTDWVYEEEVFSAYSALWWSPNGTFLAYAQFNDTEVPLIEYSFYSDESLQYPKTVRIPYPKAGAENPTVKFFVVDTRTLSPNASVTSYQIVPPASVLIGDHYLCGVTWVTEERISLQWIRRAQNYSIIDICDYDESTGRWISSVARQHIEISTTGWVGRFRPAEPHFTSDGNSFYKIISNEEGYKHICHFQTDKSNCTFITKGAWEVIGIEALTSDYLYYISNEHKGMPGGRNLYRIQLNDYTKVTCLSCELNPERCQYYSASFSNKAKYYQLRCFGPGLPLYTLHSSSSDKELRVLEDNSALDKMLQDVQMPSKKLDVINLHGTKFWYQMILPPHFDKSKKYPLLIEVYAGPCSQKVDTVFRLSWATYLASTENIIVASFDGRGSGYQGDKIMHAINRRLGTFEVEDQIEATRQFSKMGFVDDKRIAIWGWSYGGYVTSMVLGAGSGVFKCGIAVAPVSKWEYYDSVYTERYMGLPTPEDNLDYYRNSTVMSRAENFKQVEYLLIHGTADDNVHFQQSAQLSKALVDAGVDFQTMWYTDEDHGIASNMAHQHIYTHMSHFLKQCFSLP
T2 sequence (P27487 29-766 limits assumed): as the sequence (P27487 29-766 limits assumed) above
T4 sequence (P22411 38-766 limits assumed): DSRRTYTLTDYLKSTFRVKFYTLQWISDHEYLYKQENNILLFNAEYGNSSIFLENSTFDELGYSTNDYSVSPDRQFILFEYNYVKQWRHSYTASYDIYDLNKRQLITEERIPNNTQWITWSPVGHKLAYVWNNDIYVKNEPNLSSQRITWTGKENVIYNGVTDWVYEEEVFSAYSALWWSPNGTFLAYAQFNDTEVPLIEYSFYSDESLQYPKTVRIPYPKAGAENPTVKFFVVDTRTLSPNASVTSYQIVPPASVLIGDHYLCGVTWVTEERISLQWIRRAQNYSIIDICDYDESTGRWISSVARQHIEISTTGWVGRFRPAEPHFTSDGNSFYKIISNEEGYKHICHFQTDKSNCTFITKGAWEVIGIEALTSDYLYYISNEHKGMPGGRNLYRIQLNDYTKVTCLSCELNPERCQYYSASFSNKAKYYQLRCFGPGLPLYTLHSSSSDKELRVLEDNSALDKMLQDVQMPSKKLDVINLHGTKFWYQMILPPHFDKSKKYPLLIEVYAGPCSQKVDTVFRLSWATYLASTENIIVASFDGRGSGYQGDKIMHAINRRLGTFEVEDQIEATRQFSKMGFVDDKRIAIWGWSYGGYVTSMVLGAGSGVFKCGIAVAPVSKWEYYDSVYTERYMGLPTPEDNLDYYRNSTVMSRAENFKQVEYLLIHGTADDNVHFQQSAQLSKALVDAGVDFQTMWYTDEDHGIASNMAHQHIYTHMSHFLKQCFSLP
T1 sequence (peptide, as listed by the source): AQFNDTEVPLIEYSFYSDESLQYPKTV

B1: CDina26 (antibody, mouse IgG2b, kappa, V domains shown)
VH: QVQLQQSGAELVKPGASVKLSCKASGYTFRSYDINWVRQRPEQGLEWIGWIFPGDGSTKYNEKFKGKATLTTDKSSSTAYMQLSRLTSEDSAVYFCARWTVVGPGYFDVWGAGTTVTVSS
VL: QIVLTQSPAIMSASPGEKVTITCSASSSVSYMNWFQQKPGTSPKLWIYSTSNLASGVPARFSGSGSGTSYSLTISRMEAEDAATYYCQQRSSYPNTFGGGTKLEIKR
notes: also called antibodies produced by the PD 12002 hybridoma cell line deposit; murine monoclonal antibody against CD26
In the case of B1, in assay [1], the Kd (as a rule, the free concentration of one partner at which half of the binding sites on the other are occupied at equilibrium, for simple one-to-one binding) was found to be 5.02 nM. In addition, the koff (commonly the rate constant with which the complex falls apart) is 0.000132 s⁻¹ in assay [1] and 2.8e-05 s⁻¹ in assay [3]. For the same molecule, in assay [1], the kon (in general, the rate constant with which the complex forms) turned out to be 26300 M⁻¹ s⁻¹. The binding result in assay [2], in assay [4] and in assay [5] was “no binding” throughout.
